T1: NRP(D/E)2 (Arabidopsis thaliana (endogenous in T87 …, UniProt Q9LK40 1-1172))
T1 construct: NRP(D/E)2, second largest subunit shared by Pol IV and Pol V, Arabidopsis thaliana; also called NRP(D/E)2 subunit; source: endogenous, A. thaliana T87 cells, co-purified with 3xFLAG-10xHis-NRPE1
T1 sequence (looked up): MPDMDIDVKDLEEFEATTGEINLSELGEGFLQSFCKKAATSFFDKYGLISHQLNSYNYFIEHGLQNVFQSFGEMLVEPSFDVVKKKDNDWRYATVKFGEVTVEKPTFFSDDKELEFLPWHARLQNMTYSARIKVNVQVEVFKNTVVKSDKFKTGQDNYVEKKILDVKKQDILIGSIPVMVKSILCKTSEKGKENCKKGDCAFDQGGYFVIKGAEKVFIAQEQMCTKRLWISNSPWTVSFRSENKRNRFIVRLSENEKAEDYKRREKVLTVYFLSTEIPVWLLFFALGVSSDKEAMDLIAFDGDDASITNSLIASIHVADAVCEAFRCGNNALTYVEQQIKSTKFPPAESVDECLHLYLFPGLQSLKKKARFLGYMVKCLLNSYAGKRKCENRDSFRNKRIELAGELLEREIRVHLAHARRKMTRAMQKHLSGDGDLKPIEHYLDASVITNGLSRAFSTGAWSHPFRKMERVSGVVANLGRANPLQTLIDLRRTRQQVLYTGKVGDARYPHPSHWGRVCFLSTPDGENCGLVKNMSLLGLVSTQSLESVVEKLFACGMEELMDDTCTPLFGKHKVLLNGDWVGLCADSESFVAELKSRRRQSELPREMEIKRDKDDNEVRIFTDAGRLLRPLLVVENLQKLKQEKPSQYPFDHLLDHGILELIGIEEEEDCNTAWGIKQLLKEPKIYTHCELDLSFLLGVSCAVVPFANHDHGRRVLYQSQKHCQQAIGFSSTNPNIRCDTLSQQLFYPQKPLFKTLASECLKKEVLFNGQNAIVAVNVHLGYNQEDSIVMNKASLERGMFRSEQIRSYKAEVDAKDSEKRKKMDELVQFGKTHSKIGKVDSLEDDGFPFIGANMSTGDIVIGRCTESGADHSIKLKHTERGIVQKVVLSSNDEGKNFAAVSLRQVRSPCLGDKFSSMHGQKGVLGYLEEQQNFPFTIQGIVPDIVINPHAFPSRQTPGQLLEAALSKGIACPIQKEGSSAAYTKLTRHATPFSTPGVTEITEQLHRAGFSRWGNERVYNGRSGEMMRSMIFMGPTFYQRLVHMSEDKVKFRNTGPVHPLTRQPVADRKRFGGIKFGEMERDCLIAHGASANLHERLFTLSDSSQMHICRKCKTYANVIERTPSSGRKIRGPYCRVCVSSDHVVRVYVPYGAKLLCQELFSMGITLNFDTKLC

B1: NRP(A/B/C/D/E)12 (natural protein)
chain: not shown
notes: NRP(A/B/C/D/E)12, subunit 12 shared by Pol I-V, Arabidopsis thaliana; source: endogenous, A. thaliana T87 cells, co-purified with 3xFLAG-10xHis-NRPE1
B2: KOW domain-containing transcription factor 1 (KTF1), residues 1-712, the conserved N-terminal domain (domain or fragment, Arabidopsis thaliana, UniProt F4JW79 1-712, looked up)
chain: MDRKGKGKQVAGSDSYSGGQKRKNSVEFRDEGLRIKKRKNPEVLQFFEESAEVGYYGGSSDEDDDGLGFLNDMEDEPEVEESSKAGKGEKGKSSFVFPKEEDLNEEEFDRIMEERYKPGSGFLRYADDDIKDAIEMDALAPTSKDPPIWKVKCAIGRERRSVFCLMHKFVELRKIGTKLEIISVFSVDHVKGFIFIEADKEHDVLEACKSLVGIYATRMVLLPKAETPNLLTVQKKTKKVSEGTWARVKNGKYKGDLAQIVAVSDTRNKALIKLIPRIDIQALTQKYGGGVTVQKGQTPAPRLISSSELEEFRPLIQVRRDRDTGITFEHLDSLMLKDGYLYKKVSLDSISSWGVIPTKDELLKFTPVDRKETGDVEWISEIYGEERKKKILPTCREGGKGEGSGGGKGEGSGGGKGEGSRGGKGEGSSDFKSESSYELYNLVCFSRKDFGLIVGVDDKGDGYKVLKEGIDGPVVVTVGKKEMQNGPFDSKFTALDLNKKQISVNDVVKISKGPSEGKQGVVRQVYRGIIFLYDESEEENGGYFCCKSQSCEKVKLFTEESNEKTGGFDGTAFEDFVSSPKSPLSPEKEWQPRERYNSSNQGDIGSTYSIGQKLRIRVGPLKGYLCRVIALRYSDVTVKLDSQHKIFTVKSEHLAEVRDRNTVLSTSGDAGTGSFQPFGMLGTESSTGDWAIGAGTSSEGGNWNIGGPSTDS
notes: KTF1 (SPT5L), Arabidopsis thaliana, At5g04290, residues 1-712 (NGN, KOW1, KOW4, KOW5; without the C-terminal GW/WG repeats); The modified pETDuet1 vector carries a 6xHis-tagged SUMOstar that was cleaved on the column; Added to Pol V as the heterodimer with SPT4; Only the KOW5 domain is seen in the map; also called SPT5L; truncated KTF1 (1-712)
B3: NRP(B/D/E)3 (natural protein, UniProt Q39211 1-319, looked up)
chain: MDGATYQRFPKIKIRELKDDYAKFELRETDVSMANALRRVMISEVPTVAIDLVEIEVNSSVLNDEFIAHRLGLIPLTSERAMSMRFSRDCDACDGDGQCEFCSVEFRLSSKCVTDQTLDVTSRDLYSADPTVTPVDFTIDSSVSDSSEHKGIIIVKLRRGQELKLRAIARKGIGKDHAKWSPAATVTFMYEPDIIINEDMMDTLSDEEKIDLIESSPTKVFGMDPVTRQVVVVDPEAYTYDEEVIKKAEAMGKPGLIEISPKDDSFIFTVESTGAVKASQLVLNAIDLLKQKLDAVRLSDDTVEADDQFGELGAHMRGG
notes: NRP(B/D/E)3, subunit 3 shared by Pol II, IV and V, Arabidopsis thaliana; also called NRPE(B/D/E)3; source: endogenous, A. thaliana T87 cells, co-purified with 3xFLAG-10xHis-NRPE1

Key:
[1] = target: B2; experiment: cryo-EM structure; Pol V, nucleic-acid scaffold and KTF1/SPT4 heterodimer mixed 1:1.2:3 in 20 mM HEPES pH 7.5, 100 mM NaCl, 5 mM MgCl2, 1 mM DTT; complex taken from Superose 6 Increase; maps at 3.2 Å and 4.3 Å, local maps at 3.0 Å and 3.7 Å; details: both partners purified
[2] = target: T1, NRP(D/E)2; experiment: as above; details: both partners purified

B1: binds [1].

B2: binds [2].

B3: binds [1].

Reference: PMC10229537, “A cryo-EM structure of KTF1-bound polymerase V transcription elongation complex” (Nature Communications, 2023)
